This series deals with PFV RNase H wt (prototype foamy virus, UniProt P14350 591-751). Nature of the series: fluorescence anisotropy; 25 nM substrate; Fluorescence anisotropy: 25 nM substrate, excitation 652 nm, emission 673 nm; buffer, salt, pH and temperature not given (as described in ref 5). Particulars: protein: recombinant; label: DY647 at 5' end of DNA strand; blunt. On the technique in general: Polarisation of emitted light reports the rotation of a fluorescent probe.

B1: 10/10-mer RNA/5'-DY647-DNA (DNA:RNA)
RNA: GCGACACCUG
DNA: CAGGTGTCGC
As for B1, the Kd was determined as 23 ± 3 µM.

Usually Kd stands for the concentration at which binding is half-saturated.
